Molecular target: Flag-actin-WT, P60709
Assay: co-immunoprecipitation with anti-Flag magnetic beads, competition with purified MRTF-A (2-261), immunoblot quantification
Conditions: chain shown with the change; NIH 3T3 cells co-expressing Flag-actin-WT and myc-JMY constructs, serum-starved for 24 h post transfection; purified MRTF-A (2-261) added to the lysates prior …; parent: est. 0.97; read off a plot

other: relative amount of MRTF-A bound to Flag-actin (competition by co-expressed JMY): 0.59
B1: myc-JMY-f.l., Q9QXM1 R961E (protein)
chain: MSFALEETLESDWVAVRPHVFDEREKHKFVFIVAWNEIEGKFAITCHNRTAQRQRSGSREQAGTPASDGSRGPGSPAARGRSEAAASATAALRSPGPRKSQAWAEGGSPRSARSLKGDPPRGPAGRGPESPLRSPARAKASPLRRSAESRDAIASATPVPPAPPVPPVSSVRVVSASGAVSEEIEVLEMVREDEAPQPLPDSEQPPSAAELESSAEECSWAGLFSFQDLRAVHQQLCSVNSQLEPCLPVFPEEPSGMWTVLFGGAPEMTEQEIDALCYQLQVYLGHGLDTCGWKILSQVLFTETDDPEEYYESLSELRQKGYEEVLQRARRRIQELLDKHKTIESMVELLDLYQMEDEAYSSLAEATTELYQYLLQPFRDMRELAMLRRQQIKISMENDYLGPRRIESLQKEDADWQRKAHMAVLSIQDLTVKYFEITAKAQKAVYDRMRADQKKFGKASWAAAAERMEKLQYAVSKETLQMMRAKEICLEQKKHALKEEMQSLQGGTEAIARLDQLESDYYDLQLQLYEVQFEILKCEELLLTAQLESIKRLISEKRDEVVYYDTYESMEAMLEKEEMAASVHAQREELQKLQQKARQLEARRGRVSAKKAYLRNKKEICIAKHHEKFQQRFQSEDEYRAHHTIQIKRDKLHDEEERKSAWVSQERQRTLDRLRTFKQRYPGQVILKSTRLRVAHSRRKSTASPVPCEEQCHSLPTVLQGQEKTEVGGGGSQLGPSQTAEPQSLVQLEDTSSEQLESTSLPPRAVVSSELPPPQSAPLLTSIDPKPCSVTIDPLPPPLPPTPPPPPPPPPPPPPPLPVAKDNGASTTAETLEKDALRTEGNERSIPKSASAPAAHLFDSSQLVSARKKLRKTVEGLQRRRVSSPMDEVLASLKRGSFHLKKVEQRTLPPFPDEDDSNNILAQIRKGVKLKKVQKEVLRESFTLLPDTDPLTRSIHEALREIKEASPESEDEEEALPCTDWEN
